From paper PMC12240541 (Science (New York, N.Y.), 2021)

B1: S2L20 mAb (antibody, V domains shown)
VH: EVQLVESGGGVVQPGGSLRLSCAASGFTFNSYGMHWVRQAPGKGLEWVAFIRYDGGNKYYADSVKGRFTISRDNSKNTLYLQMKSLRAEDTAVYYCANLKDSRYSGSYYDYWGQGTLVTVS
VL: not shown
notes: copies: 2 + 2
B2: S2X303 mAb (antibody, V domains shown)
VH: QITLKESGPTLVKPTQTLTLTCKLSGFSVNTGGVGVGWIRQPPGKALEWLALIYWNDDKLYSPSLKSRLTVTKDTSKNQVVLTMTNMDPVDTATYYCAHVLVWFGEVLPDAFDVWGQGTMVTVSS
VL: SYELTQPPSVSVSPGQTASITCSGDKLGETYASWYQQKPGQSPILVIYQDNKRPSGIPERFSGSNSENTATLTISGTQTMDEADYYCQAWDKTIAGFGGGTKLTV
notes: copies: 2 + 2

Target: recombinant SARS-CoV-2 wildtype Wuhan-Hu-1 S ectodomain trimer (SARS-CoV-2, Wuhan-Hu-1, UniProt P0DTC2)
Experiment: ELISA
Conditions: both partners purified

Row | Binder | binding result
1 | B1 | binds
2 | B2 | binds
